Assay results as given in US20120269832A1.

Experiments:
[1] = target: human CD40L protein translated from transfected CD40L mRNA (pCR2.1 CD40L WT, >100 nucleotide poly-A tail) (human) (UniProt P29965); assay: cell-based or functional assay
[2] = target: CD40, the cognate receptor molecule for CD40L, on human monocyte-derived dendritic cells (human) (UniProt P25942); assay: cell-based or functional assay
UniProt P25942, sequence (P25942 21-277): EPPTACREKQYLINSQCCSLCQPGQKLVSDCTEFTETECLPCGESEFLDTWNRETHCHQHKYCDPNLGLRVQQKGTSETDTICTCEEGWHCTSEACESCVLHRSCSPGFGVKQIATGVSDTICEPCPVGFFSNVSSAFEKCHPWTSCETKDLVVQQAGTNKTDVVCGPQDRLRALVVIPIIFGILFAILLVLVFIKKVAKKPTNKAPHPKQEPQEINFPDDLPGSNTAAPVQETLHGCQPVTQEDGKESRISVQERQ

Substance	IL-12p70 (pg/ml), "Cocktail" matured and reactivated DCs co-cultured with HeLa/>100 polyA + IFN-γ + 24-31 [1] [pg/mL]	IL-12 p70 release from CD40L mRNA-transfected DCs cultured with IFN-γ and 10 or 50 µg/ml blocking anti-CD40L antibody [1] [%]	IL-12p70 (pg/ml), "Cocktail" matured and reactivated DCs co-cultured with HeLa/>100 polyA + IFN-γ [2] [pg/mL]	IL-12p70 (pg/ml), immature DCs co-cultured with HeLa/>100 polyA + IFN-γ [2] [pg/mL]
blocking CD40L monoclonal antibody 24-31 (eBioscience)	2.5	50		
human CD40L protein translated from transfected CD40L mRNA (pCR2.1 CD40L WT, >100 nucleotide poly-A tail) (from UniProt P29965 1-261) (ligand)			26.3	372
